# Where a chain is given by its changes, count along the chain named. In names and notes the source's numbering stands.
# T1: bovine pancreatic trypsin (Bos taurus, UniProt P00760)
# T1 construct: purchased Worthington (Worthington Biochemical Corp.)
# T1 sequence (P00760 24-246): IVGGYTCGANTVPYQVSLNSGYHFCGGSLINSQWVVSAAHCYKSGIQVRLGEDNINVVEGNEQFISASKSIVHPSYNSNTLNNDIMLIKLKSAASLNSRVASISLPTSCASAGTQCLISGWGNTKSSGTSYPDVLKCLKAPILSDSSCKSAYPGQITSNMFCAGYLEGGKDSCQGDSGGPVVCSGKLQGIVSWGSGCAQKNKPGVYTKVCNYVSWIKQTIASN
# B1: BBIt-AV-A13I-M27R-L29P-A40K-F50T-V52A: modified variant BBPI, SEQ ID NO:619 (protein)
# chain: DPDDESSKPCCDQCICTKSNPPQCRCSDRRPNSCHSACKSCKCYNLYGWTCTCADITDFCYEPCKPSE
# modifications: synthetic BBPI variant
# B2: BBIt-AV-A13I-L29P-S31A-A40K-F50T-V52A: modified variant BBPI, SEQ ID NO:621 (protein)
# chain: B1 chain with R29M, S33A
# modifications: synthetic BBPI variant
# B3: BBIt-AV-A13I-L29P-A40K-F50T-V52T: modified variant BBPI, SEQ ID NO:625 (protein)
# chain: B1 chain with R29M, A54T
# modifications: synthetic BBPI variant
# B4: BBIt-AV-S4V-A13I-L29P-A40K-F50T-V52A: modified variant BBPI, SEQ ID NO:612 (protein)
# chain: B1 chain with S6V, R29M
# modifications: synthetic BBPI variant
# B5: BBIt-AV-Q11G-A13I-L29P-A40K-F50T-V52A: modified variant BBPI, SEQ ID NO:614 (protein)
# chain: B1 chain with Q13G, R29M
# modifications: synthetic BBPI variant
# B6: BBIt-AV-A13I-L29K-A40K-F50T-V52A: modified variant BBPI, SEQ ID NO:620 (protein)
# chain: B1 chain with R29M, P31K
# modifications: synthetic BBPI variant
# B7: BBIt-AV-S5P-A13I-L29P-A40K-F50T-V52A: modified variant BBPI, SEQ ID NO:613 (protein)
# chain: B1 chain with S7P, R29M
# modifications: synthetic BBPI variant
# B8: BBIt-AV-A13I-S25R-L29P-S31R-A40K-F50T-V52A: modified variant BBPI, SEQ ID NO:618 (protein)
# chain: B1 chain with S27R, R29M, S33R
# modifications: synthetic BBPI variant
# B9: BBIt-AV-A13I-S25R-L29P-S31A-A40K-F50T-V52A: modified variant BBPI, SEQ ID NO:617 (protein)
# chain: B1 chain with S27R, R29M, S33A
# modifications: synthetic BBPI variant
# B10: BBIt-AV-A13I-S25R-L29P-A40K-F50T-V52A: modified variant BBPI, SEQ ID NO:616 (protein)
# chain: B1 chain with S27R, R29M
# modifications: synthetic BBPI variant
# B11: 4D13BBIt-AV: BBIt-AV with 13 amino acid 4D13 insert (SEQ ID NO:389) at the N-terminus, SEQ ID NO:390 (protein)
# chain: DDEPSKPCCDPDPDDESSKPCCDQCACTKSNPPQCRCSDMRLNSCHSACKSCACYNLYGWTCFCVDITDFCYEPCKPSE
# modifications: synthetic BBI sequence
# Target: T1, bovine pancreatic trypsin
# Assay: Shake flask screen: trypsin inhibition after growth, 2-mercaptoethanol activation and acid/heat treatment
# Assay type: biochemical
# Conditions: not given
# Experimental: To increase expression, the gene copy of the selected clones was amplified by sequentially streaking colonies on Luria agar plates with 25 μg/ml chloramphenicol until the growth rate was similar to growth on Luria agar plates without chloramphenicol. Cultures of the selected variants and controls were grown in 3 ml Luria broth with 25 μg/ml chloramphenicol in 15 ml tubes for ˜10 h. These cultures (30 μl) were then used to inoculate 30 ml of MBD medium in 250 ml baffled shake flasks and grown at 37° C. and 225 rpm for ˜60 h.
# For selection of the variants with the best yields, the culture broths were processed as follows. The broth was first activated by mixing 20 ml of broth with 20 ml of 0.25 M glycine buffer (pH 9.3) and the pH was adjusted to 9.0 with 50% NaOH. Then, 2-mercaptoethanol was added to the diluted cultures to a final concentration of 2 mM and the cultures were incubated overnight at room temperature with gentle shaking. The BBIt-AV moiety was then cleaved from the fusion protein by acid/heat treatment, which was accomplished by first adjusting the pH of the activated broth to pH 1.9-2.0 with sulfuric acid, and followed by incubation at 60° C. for 16 hours, with shaking. The BBIt-AV-BCE fusion protein and the BCE catalytic domain are not soluble at pH 2, whereas the free BBI species is soluble. After the cleavage reaction, the insoluble material was removed by centrifugation (5 min. at 3,000 rpm) and the supernatant was analyzed for trypsin inhibitory activity as described above. The BBI activity was also determined for the starting material and for the samples taken after activation. The BCE activity of the starting material was also determined as described above. The BBIt-AV:BCE activity ratios were then calculated for each step in process. The modified BBIt-AVs produced at the highest yields following the acid/heat treatment were selected for further study.
row,Molecule,yield after acid/heat treatment relative to BBIt-AV-A13I-L29P-A40K-F50T-V52A (SEQ ID NO:601)
1,B1,somewhat less
2,B2,somewhat less
3,B3,somewhat less
4,B4,significantly lower yields
5,B5,significantly lower yields
6,B6,significantly lower yields
7,B7,significantly lower yields
8,B8,significantly better yields
9,B9,significantly better yields
10,B10,significantly better yields

# Same assay, conditions: relative to unmodified BBIt-AV
row,Molecule,BBIt-AV:BCE activity ratio after acid/heat treatment
1,B11,higher

# — patent US7772181B2, “Personal care compositions comprising modified variant Bowman Birk Protease Inhibitors” (Danisco US Inc., priority 2008, dated 2010)
